Test results published in the supplement of paper PMC10126150.
± gives the standard deviation of the averaged measurements.

test system: ATP; test: switch fluorescence ratio, 500 uM ATP over buffer (Cy3 cluster intensity, sum of 5 cycles each) (fold (ratio)); higher = stronger signal-on switching upon ATP binding; sequences stand for … in TCGTCGGCAGCGTCAGATGTGTATAAGAGACAGTTTTTTTTTTTTTTTTTTTTTTTTT…TC; conditions: aptamer strand: ATP DNA aptamer (quencher-CACCTGGGGGAGTATTGCGGAGGAAGG + anchor), 100 nM annealed; ATP concentration: 500 uM
Method in brief: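 Five buffer/ATP imaging cycles were run on Cy3-labelled switching-strand clusters on a modified Illumina MiSeq flow-cell, with NaOH stripping and re-annealing between cycles. In each cycle, clusters annealed to 100 nM quencher-labelled ATP aptamer were imaged in selection buffer, then after 15 min with 500 uM ATP at 22 °C. Per cluster, the fluorescence ratio is summed target-cycle over summed buffer-cycle Cy3 intensity, averaged per switch-domain sequence. Only clusters within 100-1000 RFU were kept.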
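Note: ATP exposure 15 min at 22 °C before imaging.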

Point of comparison: AACGCGTCTG, switch fluorescence ratio 1.012 ± 0.0037. Against it:
- AACCGTTCGA — higher, 1.07 ± 0.046
- AACCGTTGGT — the same, 1.01 ± 0.014
- AACCTCACGC — higher, 1.73 ± 0.2
- AACCTGGGGG — within error, 1.1 ± 0.15
- AACCTTTGTT — within error, 1.06 ± 0.083
- AACCTTTTTT — higher, 1.03 ± 0.0037
- AACGAAGTCG — within error, 1 ± 0.015
- AACGACGGGG — the same, 1.01 ± 0.033
- AACGATATTC — higher, 1.07 ± 0.03
- AACGATCGCT — higher, 1.04 ± 0.0082
- AACGATTTTG — higher, 1.03 ± 0.016
- AACGATTTTT — the same, 1.007 ± 0.0084
- AACGCCGAGT — lower, 0.9816 ± 0.0097
- AACGCGGCTG — lower, 0.9967 ± 0.0046
- AACGCTTCAC — higher, 1.65 ± 0.054
- AACGGACTTA — higher, 1.25 ± 0.044
- AACGGCGCAT — within error, 1.02 ± 0.052
- AACGGCGGGG — within error, 1 ± 0.017
- AACGGGACGT — within error, 0.961 ± 0.06
- AACGGGGAAC — lower, 0.986 ± 0.014
- AACGGGGGCA — lower, 0.925 ± 0.025
- AACGGGGTGT — higher, 1.062 ± 0.0093
- AACGGGTACC — within error, 1.09 ± 0.088
- AACGGTTGGC — lower, 0.975 ± 0.017
- AACGTACGTT — higher, 1.14 ± 0.015
- AACGTATATA — higher, 1.13 ± 0.026
- AACGTCAGTT — lower, 1.003 ± 0.0017
- AACGTCTTT — within error, 1.03 ± 0.071
- AACGTGTTGT — within error, 1.02 ± 0.077
- AACTAATTTT — lower, 0.9961 ± 0.0024
- AACTACAGGC — higher, 1.18 ± 0.11
- AACTACGCTT — higher, 1.48 ± 0.099
- AACTACGTCT — within error, 0.986 ± 0.055
- AACTAGATG — within error, 0.982 ± 0.025
- AACTAGGGGA — within error, 1.11 ± 0.13
- AACTATGCCT — within error, 1.03 ± 0.037
- AACTCGGATC — the same, 1.01 ± 0.042
- AACTCGGGGG — within error, 0.999 ± 0.027
- AACTGACGAA — higher, 1.29 ± 0.019
- AACTGGAGGA — lower, 0.9715 ± 0.002
- AACTGGCTGC — within error, 0.993 ± 0.061
- AACTGTGTG — within error, 0.987 ± 0.043
- AACTTAGTGG — within error, 0.996 ± 0.028
- AACTTCGGTG — lower, 0.984 ± 0.014
- AACTTCTGCC — higher, 1.025 ± 0.0013
- AACTTGAAAT — within error, 1.47 ± 0.69
- AACTTGTTTT — within error, 1.02 ± 0.032
- AACTTTAACT — higher, 1.04 ± 0.014
- AACTTTACTC — higher, 1.55 ± 0.095
- AACTTTAGTC — within error, 0.994 ± 0.04
- AACTTTAGTG — lower, 0.991 ± 0.013
- AACTTTAGTT — within error, 1.02 ± 0.027
- AACTTTTAAT — higher, 1.019 ± 0.0032
- AAGAAATCGG — the same, 1.01 ± 0.018
- AAGAACGGCG — the same, 1.01 ± 0.052
- AAGAAGAAAT — within error, 1.04 ± 0.066
- AAGAAGAGGT — within error, 1.15 ± 0.17
- AAGAAGCTTT — within error, 1.27 ± 0.38
- AAGAAGGTCC — the same, 1.01 ± 0.019
- AAGAAGTGTT — lower, 1.003 ± 0.0039
- AAGAATAAAT — within error, 1 ± 0.029
- AAGAATATGC — lower, 0.978 ± 0.027
- AAGACAGCGA — within error, 1.41 ± 0.57
- AAGACGCTAA — higher, 1.18 ± 0.026
- AAGACGTAGG — higher, 1.06 ± 0.034
- AAGACTAGTT — within error, 0.999 ± 0.03
- AAGACTCGGT — lower, 0.9518 ± 0.0012
- AAGAGAAAGT — within error, 0.998 ± 0.028
- AAGAGATAGT — within error, 1 ± 0.0076
- AAGAGATGTG — within error, 0.985 ± 0.024
- AAGAGGAAAA — within error, 1 ± 0.024
- AAGAGGAAGC — within error, 0.984 ± 0.049
- AAGAGGCGGA — within error, 1 ± 0.026
- AAGAGGGATG — within error, 0.988 ± 0.043
- AAGAGGGCAG — lower, 0.992 ± 0.0081
- AAGAGGGGCT — the same, 1.015 ± 0.0018
- AAGAGGGGGC — within error, 0.986 ± 0.045
- AAGAGGGGTT — within error, 1.03 ± 0.062
- AAGAGGTCTC — lower, 0.9681 ± 0.0023
- AAGAGGTGGG — within error, 0.99 ± 0.024
- AAGAGTAAGC — lower, 0.963 ± 0.013
- AAGAGTCGGG — within error, 0.972 ± 0.051
- AAGATACAGA — higher, 1.07 ± 0.016
- AAGATAGCGG — lower, 0.9978 ± 6.2e-05
- AAGATCAATA — lower, 0.9967 ± 0.0044
- AAGATCACGG — within error, 0.971 ± 0.057
- AAGATCATCT — the same, 1.01 ± 0.023
- AAGATCATTG — within error, 0.98 ± 0.041
- AAGATCCTTT — within error, 0.986 ± 0.025
- AAGATCTCTA — the same, 1.01 ± 0.015
- AAGATCTGCC — higher, 1.04 ± 0.021
- AAGATGAAT — within error, 0.975 ± 0.04
- AAGATGATGT — within error, 0.986 ± 0.03
- AAGATGCGTA — lower, 0.978 ± 0.016
- AAGATGCTTG — within error, 0.998 ± 0.038
- AAGATGGTAG — within error, 0.971 ± 0.038
- AAGATTAGTG — lower, 0.9828 ± 0.0067
- AAGATTGGGT — within error, 1 ± 0.049
- AAGCAATTAT — higher, 1.53 ± 0.11
- AAGCAGGGGC — within error, 1.14 ± 0.16
- AAGCAGTACC — higher, 3.24 ± 0.72
- AAGCATAGGG — within error, 1.02 ± 0.015
- AAGCATAGTC — higher, 1.06 ± 0.036
- AAGCATAGTT — lower, 0.993 ± 0.011
- AAGCATGGGC — within error, 1.02 ± 0.029
- AAGCCCAGGG — higher, 1.403 ± 0.0054
- AAGCCGCTAG — higher, 1.11 ± 0.026
- AAGCGACTCG — the same, 1.006 ± 0.0056
- AAGCGAGGGC — higher, 1.06 ± 0.035
- AAGCGCAGAC — higher, 2.32 ± 0.079
- AAGCGCTGTG — within error, 1.03 ± 0.047
- AAGCGGAAGG — higher, 1.05 ± 0.02
- AAGCGGAGAT — within error, 1.02 ± 0.0065
- AAGCGGGGGG — higher, 1.03 ± 0.015
- AAGCGGGTGG — higher, 1.05 ± 0.028
- AAGCGGTTG — lower, 1.005 ± 0.006
- AAGCGTAAAA — lower, 0.979 ± 0.024
- AAGCTAAATG — the same, 1.01 ± 0.05
- AAGCTAGGGA — the same, 1.01 ± 0.05
- AAGCTCCATT — lower, 0.967 ± 0.016
- AAGCTCGTTG — the same, 1.01 ± 0.031
- AAGCTGAAGT — within error, 1.03 ± 0.035
- AAGCTGACAG — the same, 1.01 ± 0.013
- AAGCTGTTAC — higher, 1.6 ± 0.081
- AAGCTTACGG — within error, 1.06 ± 0.056
- AAGCTTGCCT — lower, 0.9871 ± 0.0013
- AAGCTTGGCT — lower, 0.965 ± 0.028
- AAGGAAAACG — lower, 0.969 ± 0.021
- AAGGAAGACA — within error, 0.995 ± 0.03
- AAGGAAGCGT — lower, 0.9883 ± 0.0045
- AAGGAAGGCC — the same, 1.0145 ± 0.00052
- AAGGAAGTTT — within error, 1.06 ± 0.18
- AAGGAATGGT — within error, 1.05 ± 0.041
- AAGGAATTGG — lower, 0.992 ± 0.0042
- AAGGACTGAA — within error, 0.9994 ± 0.0078
- AAGGACTTGG — the same, 1.01 ± 0.014
- AAGGAGCAGT — within error, 0.985 ± 0.13
- AAGGAGGATT — within error, 1 ± 0.028
- AAGGAGGCTT — within error, 1.05 ± 0.066
- AAGGAGGGGC — within error, 1.06 ± 0.13
- AAGGAGGGT — within error, 0.9965 ± 0.0096
- AAGGAGGTCA — lower, 0.977 ± 0.021
- AAGGATAAAC — the same, 1.01 ± 0.039
- AAGGATATGG — within error, 1.02 ± 0.016
- AAGGATGCGA — higher, 1.039 ± 0.0079
- AAGGATGGCC — the same, 1.01 ± 0.021
- AAGGATGTTG — lower, 0.9998 ± 0.0017
- AAGGATTAAT — lower, 0.987 ± 0.016
- AAGGATTAGC — within error, 1.04 ± 0.11
- AAGGATTCGC — within error, 1 ± 0.072
- AAGGATTTTG — within error, 0.994 ± 0.022
- AAGGCAAATA — within error, 1.04 ± 0.037
